Experimental data as given in US11278600B2, “Human alpha-galactosidase variants” (Codexis, Inc., priority 2014, dated 2022).

Key:
Type in all cases: biochemical
[1] = HTP-analysis of yeast culture supernatants, no challenge (MUGal hydrolysis); conditions: activity of the variant/activity of Rd3BB (SEQ ID NO: 13), yeast culture supernatant
Method in brief: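 GLA variants were expressed in INVSc1 yeast grown in SD-Ura broth with glucose at 30° C., and culture supernatants were collected after 66-84 h. Supernatant was mixed with McIlvaine buffer pH 4.8 and MUGal (2 mM stock) in 50 mM citrate, 200 mM KCl, pH 4.6, incubated at 37° C. for 30-180 minutes, then quenched with sodium carbonate.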

[2] = HTP-analysis of supernatants pretreated with acid (MUGal hydrolysis); conditions: challenge at pH 4.0; activity of the variant/activity of Rd3BB (SEQ ID NO: 13); yeast culture supernatant
Method in brief: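 Supernatants from INVSc1 yeast secreting GLA variants were challenged at 37° C. for 1-3 h in McIlvaine buffer at pH 3.3-4.3. Residual activity was then measured on 4 mM MUGal substrate stock at pH 4.8 with citrate buffer pH 4.3, over 30-180 min at 37° C. Reactions were quenched with sodium carbonate and read by fluorescence (Ex 355/Em 448 nm).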

[3] = HTP-analysis of supernatants pretreated with bovine serum (MUGal hydrolysis); conditions: activity of the variant/activity of Rd3BB (SEQ ID NO: 13), yeast culture supernatant
Method in brief: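 Yeast INVSc1 culture supernatants containing secreted GLA variants were mixed with bovine serum (20:80) and held 1 h at 37° C. Serum-treated samples then reacted with MUGal (4 mM stock) in citrate/McIlvaine buffer (pH 4.3/4.8) for 180 min at 37° C., were quenched with sodium carbonate, and read by fluorescence (Ex 355, Em 448 nm).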

[4] = HTP-analysis of supernatants pretreated with base (MUGal hydrolysis); conditions: challenge at pH 8.2; activity of the variant/activity of Rd3BB (SEQ ID NO: 13); yeast culture supernatant
Method in brief: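 GLA variants secreted from yeast INVSc1; culture supernatants pre-incubated with McIlvaine buffer pH 7.0–8.2 or 200 mM bicarbonate pH 9.1–9.7 at 37° C. for 1–18 h. Residual activity: MUGal (4 mM stock) hydrolysis at pH 4.3–4.8, 37° C., 30–180 min, carbonate quench; fluorescence Ex 355/Em 448 nm.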

Molecule | Relative Activity of GLA Variants After No Challenge (NC) [1] | Relative Activity of GLA Variants After Challenge at pH 4.0 [2] | Relative Activity of GLA Variants After Challenge with Serum [3] | Relative Activity of GLA Variants After Challenge at pH 8.2 [4]
303 (protein, Synthetic Polypeptide sequence of Variant No. 303 of mature Human GLA) LDNGLARTPTMGWLHWERFMCNLDCQEEPDSCISEKLFMEMAELMVSEGWKDAGYEYLCIDDCWMAPQRDSEGRLQADPQRFPHGIRQLANYVHSKGLKLGIYADVGNKTCAGFPGSFGYYDIDAQTFADWGVDLLKFDGCYCDSLENLADGYKHMSLALNRTGRSIVYSCEWPLYMWPFQKPNYTEIRQYCNHWRNFADIDDSWASIKSILDWTSFNQERIVDVAGPGGWNDPDMLVIGNFGLSWDQQVTQMALWAIMAAPLFMSNDLRHISPQAKALLQDKDVIAINQDPLGKQGYQLRQGDNFEVWERPLSGLAWAVAIINRQEIGGPRSYTIEVASLGDGVACNPACFITQLLPVKRKLGLYNWTSRLKSHVNPTGTVLLQLENTMQMSLKDLL | ++ (++ = >1.5 to 2.5 relative activity over Rd3BB (SEQ ID NO: 13)) | ++ (++ = >1.5 to 2.5 relative activity over Rd3BB (SEQ ID NO: 13)) | + (+ = 0.5 to 1.5 relative activity over Rd3BB (SEQ ID NO: 13)) | ++ (++ = >1.5 to 2.5 relative activity over Rd3BB (SEQ ID NO: 13))
308 (protein, Synthetic Polypeptide sequence of Variant No. 308 of mature Human GLA) LDNGLARTPTMGWLHWERFMCNLDCQEEPDSCISEKLFMEMAELMVSEGWKDAGYEYLCIDDCWMAPQRDSEGRLQADPQRFPHGIRQLANYVHSIGLKLGIYADVGNKTCAGFPGSFGYYDIDAQTFADWGVDLLKFDGCYCDSLENLADGYKHMSLALNRTGRSIVYSCEWPLYMWPFQKPNYTEIRQYCNHWRNFADIDDSWASIKSILDWTSRNQERIVDVAGPGGWNDPDMLVIGNFGLSWNQQVTQMALWAIMAAPLFMSNDLRHISPQAKALLQDKDVIAINQDPLGKQGYQLRQGDNFEVWERPLSGLAWAVAIINRQEIGGPRSYTIAVASLGKGVACNPACFITQLLPVKRKLGFYNWSSRLKSHINPTGTVLLQLENTMQMSLKDLL | − (− = <0.5 relative activity to Rd3BB (SEQ ID NO: 13)) | − (− = <0.5 relative activity to Rd3BB (SEQ ID NO: 13)) | + (+ = 0.5 to 1.5 relative activity over Rd3BB (SEQ ID NO: 13)) | − (− = <0.5 relative activity to Rd3BB (SEQ ID NO: 13))
307 (protein, Synthetic Polypeptide sequence of Variant No. 307 of mature Human GLA) LDNGLARTPTMGWLHWERFMCNLDCQEEPDSCISEKLFMEMAELMVSEGWKDAGYEYLCIDDCWMAPQRDSEGRLQADPQRFPHGIRQLANYVHSKGLKLGIYADVGNKTCAGFPGSFGYYDIDAQTFADWGVDLLKFDGCYCDSLENLADGYKHMSLALNRTGRSIVYSCEWPLYMWPFQKPNYTEIRQYCNHWRNFADIDDSWASIKSILDWTSFNQEKIVDVAGPGGWNDPDMLVIGNFGLSWNQQVTQMALWAIMAAPLFMSNDLRHISPQAKALLQDKDVIAINQDPLGKQGYQLRKGDNFEVWERPLSGLAWAVAIINRQEIGGPRSYTIAVASLGGGVACNPACFITQLLPVKRKLGFYNWSSRLKSHVNPTGTVLLQLENTMQMSLKDLL | + (+ = 0.5 to 1.5 relative activity over Rd3BB (SEQ ID NO: 13)) | + (+ = 0.5 to 1.5 relative activity over Rd3BB (SEQ ID NO: 13)) | + (+ = 0.5 to 1.5 relative activity over Rd3BB (SEQ ID NO: 13)) | + (+ = 0.5 to 1.5 relative activity over Rd3BB (SEQ ID NO: 13))
304 (protein, Synthetic Polypeptide sequence of Variant No. 304 of mature Human GLA) LDNGLARTPTMGWLHWERFMCNLDCQEEPDSCISEKLFMEMAELMVSEGWKDAGYEYLCIDDCWMAPQRDSEGRLQADPQRFPHGIRQLANYVHSKGLKLGIYADVGNKTCAGFPGSFGYYDIDAQTFADWGVDLLKFDGCYCDSLENLADGYKHMSLALNRTGRSIVYSCEWPLYMWPFQKPNYTEIRQYCNHWRNFADIDDSWASIKSILDWTSFNQERIVDVAGPGGWNDPDMLVIGNFGLSWNQQVTQMALWAIMAAPLFMSNDLRHISPQAKALLQDKDVIAINQDPLGKQGYQLRKGDNFEVWERPLSGDAWAVAIINRQEIGGPRSYTIPVASLGKGVACNPGCFITQLLPVKRQLGFYNWTSRLKSHINPTGTVLLQLENTMQMSLKDLL | ++ (++ = >1.5 to 2.5 relative activity over Rd3BB (SEQ ID NO: 13)) | ++ (++ = >1.5 to 2.5 relative activity over Rd3BB (SEQ ID NO: 13)) | ++ (++ = >1.5 to 2.5 relative activity over Rd3BB (SEQ ID NO: 13)) | ++ (++ = >1.5 to 2.5 relative activity over Rd3BB (SEQ ID NO: 13))
305 (protein, Synthetic Polypeptide sequence of Variant No. 305 of mature Human GLA) LDNGLARTPTMGWLHWERFMCNLDCQEEPDSCISEKLFMEMAELMVSEGWKDAGYEYLCIDDCWMAPQRDSEGRLQADPQRFPHGIRQLANYVHSKGLKLGIYADVGNKTCAGFPGSFGYYDIDAQTFADWGVDLLKFDGCYCDSLENLADGYKHMSLALNRTGRSIVYSCEWPLYMWPFQKPNYTEIRQYCNHWRNFADIDDSWASIKSILDWTSFNQERIVDVAGPGGWNDPDMLVIGNFGLSWNQQVTQMALWAIMAAPLFMSNDLRHISPQAKALLQDKDVIAINQDPLGKQGYQLRKGDNFEVWERPLSGDAWAVAIINRQEIGGPRSYTIPVASLGKGVACNPACFITQLLPVKRKLGFYNWSSRLKSHINPTGTVLLQLENTMQMSLKDLL | + (+ = 0.5 to 1.5 relative activity over Rd3BB (SEQ ID NO: 13)) | + (+ = 0.5 to 1.5 relative activity over Rd3BB (SEQ ID NO: 13)) | ++ (++ = >1.5 to 2.5 relative activity over Rd3BB (SEQ ID NO: 13)) | + (+ = 0.5 to 1.5 relative activity over Rd3BB (SEQ ID NO: 13))
306 (protein, Synthetic Polypeptide sequence of Variant No. 306 of mature Human GLA) LDNGLARTPTMGWLHWERFMCNLDCQEEPDSCISEKLFMEMAELMVSEGWKDAGYEYLCIDDCWMAPQRDSEGRLQADPQRFPHGIRQLANYVHSKGLKLGIYADVGNKTCAGFPGSFGYYDIDAQTFADWGVDLLKFDGCYCDSLENLADGYKHMSLALNRTGRSIVYSCEWPLYMWPFQKPNYTEIRQYCNHWRNFADIDDSWASIKSILDWTSFNQEKIVDVAGPGGWNDPDMLVIGNFGLSWDQQVTQMALWAIMAAPLFMSNDLRHISPQAKALLQDKDVIAINQDPLGKQGYQLRKGDNFEVWERPLSGLAWAVAIINRQEIGGPRSYTIAVASLGKGVACNPACFITQLLPVKRKLGFYNWTSRLKSHINPTGTVLLQLENTMQMSLKDLL | + (+ = 0.5 to 1.5 relative activity over Rd3BB (SEQ ID NO: 13)) | ++ (++ = >1.5 to 2.5 relative activity over Rd3BB (SEQ ID NO: 13)) | ++ (++ = >1.5 to 2.5 relative activity over Rd3BB (SEQ ID NO: 13)) | ++ (++ = >1.5 to 2.5 relative activity over Rd3BB (SEQ ID NO: 13))
